According to article PMC4231364, “Functional characterization and structural modeling of synthetic polyester-degrading hydrolases from Thermomonospora curvata” (AMB Express, 2014):

B1: Tcur0390 (Thermomonospora curvata DSM 43183) (protein)
chain: ANPYQRGPNPTEASITAARGPFNTAEITVSRLSVSGFGGGKIYYPTTTSEGTFGAIAISPGFTAYWSSLEWLGHRLASQGFVVIGIETNTTLDQPDQRGQQLLAALDYLTQRSAVRDRVDASRLAVAGHSMGGGGSLEAAKARTSLKAAIPLAPWNLDKTWPEVRTPTLIIGGELDAVAPVATHSIPFYNSLSNAPEKAYLELDNASHFFPNITNTQMAKYMIAWMKRFIDDDTRYTQFLCPPPSTGLLSDFSDARFTCPM
notes: mature protein without signal peptide, C-terminal His-tag, codon-optimised synthetic gene, pBAD TOPO, E. coli TOP10, IMAC purified, approx. 35 kDa
B2: Tcur1278 (Thermomonospora curvata DSM 43183) (protein)
chain: ANPYQRGPDPTESLLRAARGPFAVSEQSVSRLSVSGFGGGRIYYPTTTSQGTFGAIAISPGFTASWSSLAWLGPRLASHGFVVIGIETNTRLDQPDSRGRQLLAALDYLTQRSSVRNRVDASRLAVAGHSMGGGGTLEAAKSRTSLKAAIPIAPWNLDKTWPEVRTPTLIIGGELDSIAPVATHSIPFYNSLTNAREKAYLELNNASHFFPQFSNDTMAKFMISWMKRFIDDDTRYDQFLCPPPRAIGDISDYRDTCPHT
notes: as for B1

What was measured:
[1] = substrate: CCCC(=O)Oc1ccc([N+](=O)[O-])cc1; experiment: esterase assay in microplate, Michaelis-Menten kinetics; format: biochemical, Thermomonospora curvata; conditions: 25°C, pH 8.5
Description: esterase assay in microplate, Michaelis-Menten kinetics on Tcur0390

[2] = substrate: CCCC(=O)Oc1ccc([N+](=O)[O-])cc1; experiment: as above; format: biochemical, Thermomonospora curvata; conditions: 25°C, pH 8.5; remark: listed apart in the source
Description: esterase assay in microplate, Michaelis-Menten kinetics on Tcur1278

Protein	Km [1]	kcat [1]	Km [2]	kcat [2]
B1	83.1 ± 11.1 µM	12.4 ± 0.4 s⁻¹	–	–
B2	–	–	88.8 ± 12.8 µM	2.3 ± 0.1 s⁻¹
